One assay concerns rabbit anti-human β2GPI. Description: Micropanning of mutant domain 1 phage, rabbit antibody. The assay is classed as binding. Also noted: key: 0 (<10 colonies) to 4+ (confluent) semiquantitative colony score. The settings on record: Table 7B. The essentials: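 Phage displaying error-prone-PCR mutants of β2GPI domain 1 (aa 1-64, fused to pIII N-terminus) incubated 2 h at RT with protein G-captured rabbit β2GPI-dependent antiphospholipid antibody (2.5 μg/mL); acid-eluted bound phage infected into E. coli. Colonies spotted and scored semiquantitatively 0 to 4+; run on two occasions.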

Assay [1] deals with human β2GPI-dependent antiphospholipid antibody. The experiment in a line: Micropanning of mutant domain 1 phage, patient antibodies. The assay is classed as binding. The settings on record: Table 7B.
The test system of assay [2] is affinity purified β2GPI-dependent antiphospholipid antibody. Description: Direct binding ELISA, nickel chelate-coated wells charged with recombinant β2GPI proteins (no cardiolipin). Also noted: species or system human. The settings on record: O.D. at 550 nm. How it is done:
(§1) Nickel Chelate-coated microwell plates (NCP 010 00 Xenopore Corp. 374 Midland Ave. Saddle Brook, N.J. USA) were coated with 50 μl of serial dilutions of the various recombinant β2GPI, in PBS, at room temperature for 2 hours. The plates were washed three times with PBS and blocked with 75 μl of a 1% gelatin (Sigma #G-2500) in PBS for one hour room temperature. […] The plates were washed three times with PBS, 50 μl of alkaline phosphatase conjugated anti-immunoglobulin (anti-human IgG, gamma chain specific, Zymed #62-8422) or anti-rabbit IgG (Zymed #62-6122) diluted appropriately in 1% gelatin was added and incubated at 37° C. for one hour. The plates were washed three times with PBS, 50 μl of alkaline phosphatase PPMP chromogenic substrate solution was added and incubated for 30 minutes at room temperature. The optical density, at 550 nm, was determined by reading the plates in a microplate autoreader (Bio-Teck Instruments, model EL311).
(§2) Seven to nine different recombinant β2GPI mutant proteins were examined to determine if they could support the direct binding of affinity purified β2GPI-dependent antiphospholipid antibody preparations in the absence of anionic phospholipid. All recombinant mutant β2GPI were assayed with affinity purified β2GPI-dependent antiphospholipid antibody preparations from 11 different patients. Each mutant recombinant β2GPI protein was tested, in a dose dependent fashion and GST-6his was included as a negative control. The recombinant mutant β2GPI proteins were bound to nickel coated microtiter plates via their 6-his tail. All recombinant mutant β2GPI proteins tested bound rabbit anti-β2GPI showing that they were assessable by antibody (FIG. 5).
For orientation: In an ELISA, binding on a coated surface is turned into a signal by an enzyme label.

Assay [3] shares this test system. Description: Competitive inhibition ELISA: recombinant β2GPI proteins compete for antibody binding to coated full length recombinant β2GPI. Also noted: species or system human. As to conditions: for IC50: read-out: 50% (concentration to give 50% inhibition). As to the method: Microtiter plates (MaxiSorp™, Nalge Nunc International, Denmark) were coated with 50 μl of full length recombinant β2GPI at 10 μg/ml in 0.1 M bicarbonate, pH 9.5, incubated overnight at 4° C., washed three times with 0.15 M PBS, pH 7.2, and blocked for one hour at room temperature with 75 μl of 2% Non-fat Dried Milk (Carnation, 2% NFDM). Test inhibitors were diluted in 2% NFDM and 25 μl of each dilution was added to coated wells. Affinity purified β2GPI-dependent antiphospholipid antibody was diluted in 2% NFDM and 25 μl, of a constant concentration, was added to the wells, including a group of wells that had no inhibitor, which acted as the positive controls. The contents of the wells were mixed and the plates were incubated at 37° C. for one hour. The plates were washed three times with PBS, 50 μl of alkaline phosphatase conjugated anti-human IgG, gamma chain specific, (Zymed #62-8422) diluted appropriately in 2% NFDM was added and incubated at 37° C. for one hour. The plates were washed three times with PBS, 50 μl of alkaline phosphatase PPMP chromogenic substrate solution was added and incubated for 30 minutes, at room temperature. The Optical Density, at 550 nm, was determined by reading the plates in a microplate autoreader (Bio-Teck Instruments, model EL3 11). The percent inhibition was determined by dividing the OD550 obtained in the presence of inhibitor by the mean OD550 obtained from the wells without inhibitor and then multiplying by 100 (more particularly, [mean A550 obtained from control wells without inhibitor less A550 of background] minus [A550 obtained in presence of inhibitor less A550 of background] divided by [mean A550 obtained from control wells without inhibitor less A550 of background] times 100).
Seven to nine different recombinant β2GPI mutant proteins were used to determine the antigenic specificity of affinity purified β2GPI-dependent antiphospholipid antibody preparations from 13 different patients. Each mutant recombinant β2GPI protein was tested, in a dose dependent fashion, for its ability to inhibit affinity purified β2GPI-dependent antiphospholipid antibody from binding to full length recombinant β2GPI. The following values were also observed for domain 1 only recombinant protein (1 - - - -; see Table 2 for designations): […]

In another assay the test system is rabbit anti-β2GPI. Description: Direct binding ELISA, nickel chelate-coated wells, rabbit antibody. The settings on record: O.D. at 550 nm. How it is done: as §1, §2

Read-outs that look alike come from different tables or passages of the source.

B1: Dom5: phage displaying wild type (WT) domain 5 (protein)
chain: CKLPVKKATVVYQGERVKIQEKFKNGMLHGDKVSFFCKNKEKKCSYTEDAQCIDGTIEVPKCFKEHSSLAFWKTDASDVKPC
modifications: left off: large carriers
For the molecule B1, the Micropan score is 4 in the assay on rabbit anti-human β2GPI (1st column); 4 in the assay with rabbit anti-human β2GPI (2nd column); 4 in the assay with rabbit anti-human β2GPI (3rd column); 4 in the assay on rabbit anti-human β2GPI (4th column); 0 (0 symbolizing <10 colonies) in the assay on rabbit anti-human β2GPI (5th column); 0 (0 symbolizing <10 colonies) in assay [1] (antibody 6226). For the same molecule, the Micropan score in assay [1] (antibody 6501), in assay [1] (antibody 6632), in assay [1] (antibody 6644), in assay [1] (antibody 6701) and in assay [1] (antibody 7008) was 0 (0 symbolizing <10 colonies) in each case.

B2: 4G8: phage clone, domain 1 mutant P11L (protein)
chain: GRTCPKPDDLLFSTVVPLKTFYEPGEEITYSCKPGYVSRGGMRKFICPLTGLWPINTLKCTPRVAETVESCLAKLHTENSFTNVWKDDKTLDRYANYEGCLWNATGVVVCTGDETQCYGTWVPIGLAIPENEGGGSEGGGSEGGGSEGGGTKPPEYGDTPIPGYTYINPLDGTYPPGTEQNPANPNPSLEESQPLNTFMFQNNRFRNRQGALTVYTGTVTQGTDPVKTYYQYTPVSSKAMYDAYWNGKFRDCAFHSGFNEDPFVCEYQGQSSDLPQPPVNAGGGSGGGSGGGSEGGGSEGGGSEGGGSEGGGSGGGSGSGDFDYEKMANANKGAMTENADENALQSDAKGKLDSVATDYGAAIDGFIGDVSGLANGNGATGDFAGSNSQMAQVGDGDNSPLMNNFRQYLPSLPQSVECRPYVFGAGKPYEFSIDCDKINLFRGVFAFLLYVATFMYVFSTFANILRNKES
With B2, the Micropan score is reported as 4 in the assay with rabbit anti-human β2GPI (5th column); 2 in assay [1] (antibody 6226); 2 in assay [1] (antibody 6501); 2 in assay [1] (antibody 6632); 3 in assay [1] (antibody 6644); 2 in assay [1] (antibody 6701). In assay [1] (antibody 7008), the Micropan score is recorded as 3.

B3: 4D1: phage clone, domain 1 multiple mutant N56T, R63G (protein)
chain: GRTCPKPDDLPFSTVVPLKTFYEPGEEITYSCKPGYVSRGGMRKFICPLTGLWPITTLKCTPGV
On to B3, for which the Micropan score in the assay with rabbit anti-human β2GPI (5th column) is 4; in assay [1] (antibody 6226), 4; in assay [1] (antibody 6501), 2; in assay [1] (antibody 6632), 3; in assay [1] (antibody 6644), 4; in assay [1] (antibody 6701), 4. Besides, the Micropan score in assay [1] (antibody 7008) came out at 2.

B4: 4A6: phage clone, domain 1 mutant D8G (protein)
chain: GRTCPKPGDLPFSTVVPLKTFYEPGEEITYSCKPGYVSRGGMRKFICPLTGLWPINTLKCTPRV
In the case of B4, the Micropan score with rabbit anti-human β2GPI (5th column) is on record as 4; in assay [1] (antibody 6226), 2; in assay [1] (antibody 6501), 2; in assay [1] (antibody 6632), 2; in assay [1] (antibody 6644) it was 3; in assay [1] (antibody 6701), 2. Moreover, the Micropan score in assay [1] (antibody 7008) was found to be 2.

B5: 123--: recombinant β2GPI deletion mutant with domains 1, 2, 3 (protein)
chain: GRTCPKPDDLPFSTVVPLKTFYEPGEEITYSCKPGYVSRGGMRKFICPLTGLWPINTLKCTPRVCPFAGILENGAVRYTTFEYPNTISFSCNTGFYLNGADSAKCTEEGKWSPELPVCAPIICPPPSIPTFATLRVYKPSAGNNSLYRDTAVFECLPQHAMFGNDTITCTTHGNWTKLPECGHHHHHH
Take B5: the “Maximum O.D.” value is on record as 0.938 in assay [2] (Ab 6203); 0.909 in assay [2] (Ab 6501); 1.250 in assay [2] (Ab 6626); 0.121 in assay [2] (Ab 6632); 0.530 in assay [2] (Ab 6641); 1.020 in assay [2] (Ab 6644). Besides, the “Maximum O.D.” value in assay [2] (Ab 6652) came to 0.320; in assay [2] (Ab 6701), 0.841; in assay [2] (Ab 7008), 0.360; in assay [2] (Ab 7015), 1.160; in assay [2] (Ab 7101) it was 0.951; in the assay with rabbit anti-β2GPI, 1.971. The “Max (maximum inhibition observed at concentrations tested)” value in assay [3] (Ab 6203) was determined as 75%; in assay [3] (Ab 6501) it was 85%; in assay [3] (Ab 6509) it was 90%; in assay [3] (Ab 6626) it was 90%; in assay [3] (Ab 6632), 90%; in assay [3] (Ab 6641) it was 60%. Moreover, the “Max (maximum inhibition observed at concentrations tested)” value was 90% in assay [3] (Ab 6644); 95% in assay [3] (Ab 6652); 95% in assay [3] (Ab 6701); 80% in assay [3] (Ab 7008); 90% in assay [3] (Ab 7015); 70% in assay [3] (Ab 7101). Also, the “Max (maximum inhibition observed at concentrations tested)” value in assay [3] (Ab 7104) was 98%. In addition, the IC50 worked out at 1000 nM in assay [3] (Ab 6203); 800 nM in assay [3] (Ab 6501); 300 nM in assay [3] (Ab 6509); 800 nM in assay [3] (Ab 6626); 200 nM in assay [3] (Ab 6632); 4000 nM in assay [3] (Ab 6641). Besides, the IC50 worked out at 700 nM in assay [3] (Ab 6644); 300 nM in assay [3] (Ab 6652); 300 nM in assay [3] (Ab 6701); 400 nM in assay [3] (Ab 7008); 700 nM in assay [3] (Ab 7015); 3000 nM in assay [3] (Ab 7101). Moreover, in assay [3] (Ab 7104), the IC50 worked out at 1000 nM.

The values above are taken from US6858210B1, “Therapeutic and diagnostic domain 1 β2GPI polypeptides and methods of using same” (La Jolla Pharmaceutical Co., priority 1998, dated 2005).
